For assay [1], the target named is T1, human ILT6 (LILRA3) on CHO cells (human, UniProt Q8N6C8 24-434).
T1 construct: also called CHO ILT6 cell line; human ILT-6 polypeptide
Nature of the assay: flow cytometry, CHO transfectants. Background: Flow cytometry measures light scatter and fluorescence of single cells or particles in a stream.

Assay [2] has as its target T2, ILT2 mutant 2 (human, UniProt Q8NHL6 24-650).
T2 construct: transfected in HEK293T cells; also called M2
Nature of the assay: flow cytometry, ILT2 point mutants.

Assay [3] deals with T3, anchored ILT2 D2 domain protein (human).
T3 construct: on CHO cells; the entry includes leader remnant, V5 tag and CD24 GPI anchor signal
T3 sequence (chain, as listed by the source limits assumed): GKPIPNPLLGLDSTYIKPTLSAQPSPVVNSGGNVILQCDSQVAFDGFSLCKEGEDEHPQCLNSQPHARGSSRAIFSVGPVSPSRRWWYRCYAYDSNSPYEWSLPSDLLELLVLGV
The assay can be described thus: flow cytometry, CHO cells with anchored ILT2 domain proteins.

The target in assay [4] is T4, anchored ILT2 D3 domain protein (human).
T4 construct: on CHO cells; the entry includes leader remnant, V5 tag and CD24 GPI anchor signal
T4 sequence (chain, as listed by the source limits assumed): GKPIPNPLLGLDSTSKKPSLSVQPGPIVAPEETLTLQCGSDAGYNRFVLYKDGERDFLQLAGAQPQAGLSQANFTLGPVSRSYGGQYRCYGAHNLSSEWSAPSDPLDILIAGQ
Described as above.

In assay [5] the target is T5, anchored ILT2 D4 domain protein (human, UniProt Q8NHL6 322-650).
T5 construct: on CHO cells; the entry includes leader remnant, V5 tag, and the ILT2 transmembrane and cytoplasmic parts
T5 sequence (Q8NHL6 other isoform, or with tags, fused parts or gaps limits assumed): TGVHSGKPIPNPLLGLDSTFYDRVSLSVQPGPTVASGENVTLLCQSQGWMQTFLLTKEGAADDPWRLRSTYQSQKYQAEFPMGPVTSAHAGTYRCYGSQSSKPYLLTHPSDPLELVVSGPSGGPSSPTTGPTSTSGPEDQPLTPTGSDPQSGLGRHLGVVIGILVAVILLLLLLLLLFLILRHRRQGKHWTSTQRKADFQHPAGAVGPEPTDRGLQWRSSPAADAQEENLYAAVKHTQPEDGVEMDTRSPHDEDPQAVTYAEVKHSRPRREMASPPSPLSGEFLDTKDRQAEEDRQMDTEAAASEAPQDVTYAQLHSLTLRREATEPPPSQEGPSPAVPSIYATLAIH
The assay is described as above.

Assay [6] addresses T6, anchored ILT2 D2-D3 domain protein (human, UniProt Q8NHL6 122-321).
T6 construct: on CHO cells; the entry includes leader remnant, V5 tag and CD24 GPI anchor signal
The assay is described as above.

Assay [7] deals with T7, anchored ILT2 D3-D4 domain protein (human, UniProt Q8NHL6 223-650).
T7 construct: on CHO cells; the entry includes leader remnant, V5 tag, and the ILT2 transmembrane and cytoplasmic parts
T7 sequence (Q8NHL6 other isoform, or with tags, fused parts or gaps limits assumed): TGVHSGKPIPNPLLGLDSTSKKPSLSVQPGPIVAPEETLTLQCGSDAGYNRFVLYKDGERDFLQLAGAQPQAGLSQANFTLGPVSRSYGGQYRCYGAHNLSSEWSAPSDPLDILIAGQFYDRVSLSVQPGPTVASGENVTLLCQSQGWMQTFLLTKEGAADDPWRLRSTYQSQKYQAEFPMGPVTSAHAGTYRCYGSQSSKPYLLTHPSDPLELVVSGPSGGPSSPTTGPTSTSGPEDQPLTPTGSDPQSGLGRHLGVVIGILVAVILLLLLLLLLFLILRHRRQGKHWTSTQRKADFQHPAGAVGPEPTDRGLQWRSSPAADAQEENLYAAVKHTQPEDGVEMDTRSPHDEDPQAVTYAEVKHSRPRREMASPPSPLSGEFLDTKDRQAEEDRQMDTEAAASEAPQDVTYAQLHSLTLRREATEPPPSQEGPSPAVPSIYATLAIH
Described as above.

The target of assay [8] is T8, anchored ILT2 D2-D3-D4 domain protein (human, UniProt Q8NHL6 122-650).
T8 construct: on CHO cells; the entry includes leader remnant, V5 tag, and the ILT2 transmembrane and cytoplasmic parts
T8 sequence (Q8NHL6 other isoform, or with tags, fused parts or gaps limits assumed): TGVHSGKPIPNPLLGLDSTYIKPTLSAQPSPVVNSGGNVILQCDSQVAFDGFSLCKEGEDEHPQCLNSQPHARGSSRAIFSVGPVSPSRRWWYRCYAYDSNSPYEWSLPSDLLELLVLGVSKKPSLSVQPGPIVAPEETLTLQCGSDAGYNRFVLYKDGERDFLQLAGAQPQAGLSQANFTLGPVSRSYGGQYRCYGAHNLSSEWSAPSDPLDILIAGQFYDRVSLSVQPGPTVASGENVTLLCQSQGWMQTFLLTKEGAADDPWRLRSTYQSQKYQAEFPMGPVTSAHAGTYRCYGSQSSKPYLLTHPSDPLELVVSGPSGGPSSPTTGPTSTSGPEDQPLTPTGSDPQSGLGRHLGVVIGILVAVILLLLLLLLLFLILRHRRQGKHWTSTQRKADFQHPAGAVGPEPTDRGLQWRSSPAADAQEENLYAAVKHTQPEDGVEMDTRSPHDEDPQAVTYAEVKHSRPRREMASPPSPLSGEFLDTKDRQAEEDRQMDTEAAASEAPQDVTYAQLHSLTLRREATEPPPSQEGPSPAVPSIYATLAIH
The assay is described as above.

In assay [9] the target is T9, ILT-2_6xHis recombinant protein (human, UniProt Q8NHL6 24-458).
T9 construct: monomers purified by SEC; also called recombinant 6xHIS tagged ILT2; recombinant human ILT2 proteins
T9 sequence (Q8NHL6 other isoform, or with tags, fused parts or gaps limits assumed): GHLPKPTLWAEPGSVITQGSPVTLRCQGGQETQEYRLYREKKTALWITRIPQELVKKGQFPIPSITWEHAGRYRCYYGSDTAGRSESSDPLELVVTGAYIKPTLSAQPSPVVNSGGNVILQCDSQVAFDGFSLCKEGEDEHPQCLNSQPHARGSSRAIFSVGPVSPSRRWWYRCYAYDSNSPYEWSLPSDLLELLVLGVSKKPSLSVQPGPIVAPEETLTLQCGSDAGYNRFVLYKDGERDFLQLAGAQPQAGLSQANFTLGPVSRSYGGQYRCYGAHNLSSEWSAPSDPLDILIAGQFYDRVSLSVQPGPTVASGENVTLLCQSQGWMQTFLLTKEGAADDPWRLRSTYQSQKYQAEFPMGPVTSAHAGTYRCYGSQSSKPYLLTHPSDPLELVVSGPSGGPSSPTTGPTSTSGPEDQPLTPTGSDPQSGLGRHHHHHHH
Nature of the assay: SPR, antibody captured on Protein-A, soluble ILT2 analyte; 1:1 Binding. The protocol:
(§1) Measurements were performed on a Biacore T200 apparatus (Biacore GE Healthcare) at 25° C. In all Biacore experiments HBS-EP+(Biacore GE Healthcare) and NaOH 10 mM served as running buffer and regeneration buffer respectively. Sensorgrams were analyzed with Biacore T100 Evaluation software. Protein-A was purchased from (GE Healthcare). Human ILT2 recombinant proteins were cloned, produced and purified at Innate Pharma. Protein-A proteins were immobilized covalently to carboxyl groups in the dextran layer on a Sensor Chip CM5. The chip surface was activated with EDC/NHS (N-ethyl-N′-(3-dimethylaminopropyl) carbodiimidehydrochloride and N-hydroxysuccinimide (Biacore GE Healthcare)). Protein-A was diluted to 10 μg/ml in coupling buffer (10 mM acetate, pH 5.6) and injected until the appropriate immobilization level was reached (i.e. 600 RU). Deactivation of the remaining activated groups was performed using 100 mM ethanolamine pH 8 (Biacore GE Healthcare). […] For blank subtraction, cycles were performed again replacing ILT2 proteins with running buffer. The monovalent affinity analysis was conducted following a regular Capture-Kinetic protocol as recommended by the manufacturer (Biacore GE Healthcare kinetic wizard). Seven serial dilutions of human ILT2 proteins, ranging from 1.95 nM to 250 nM were sequentially injected over the captured antibodies and allowed to dissociate for 10 min before regeneration. The entire sensorgram sets were fitted using the 1:1 kinetic binding model or two state reaction model, as a function of the profile of the curves.
For orientation: In SPR one partner is held on a chip, and binding of the other changes the refractive index at the surface.

The target of assay [10] is T10, biotinylated BirA-tagged ILT2 protein tetramerised on APC-conjugated streptavidin (human, UniProt Q8NHL6 24-458, limits assumed, 1 biotin molecule per ILT2 protein (BirA tag)).
T10 construct: ratio 1 streptavidin per 4 ILT2 protein; streptavidin-APC not written as a chain; also called ILT2-SA tetramers; recombinant biotinylated ILT2
T10 sequence (Q8NHL6 24-458 limits assumed): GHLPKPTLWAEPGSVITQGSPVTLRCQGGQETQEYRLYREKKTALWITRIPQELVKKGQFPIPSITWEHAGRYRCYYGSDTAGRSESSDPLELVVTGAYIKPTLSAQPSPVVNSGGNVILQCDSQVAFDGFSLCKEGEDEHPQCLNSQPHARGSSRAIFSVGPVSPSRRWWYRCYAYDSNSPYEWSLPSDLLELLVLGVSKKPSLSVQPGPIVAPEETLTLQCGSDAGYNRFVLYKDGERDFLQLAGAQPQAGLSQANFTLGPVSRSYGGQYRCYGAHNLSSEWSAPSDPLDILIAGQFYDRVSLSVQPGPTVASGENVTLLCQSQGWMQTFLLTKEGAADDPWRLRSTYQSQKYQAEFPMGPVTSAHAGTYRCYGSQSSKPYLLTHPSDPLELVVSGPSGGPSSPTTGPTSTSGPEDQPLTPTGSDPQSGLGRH
Nature of the assay: flow cytometry blocking assay: ILT2-streptavidin-APC complexes pre-incubated with antibody, then added to WIL2-NS cells expressing HLA-A2; blocked ligand HLA-A2.

For assay [11], the target named is T11, human ILT2 on primary NK cells (human, UniProt Q8NHL6 24-650). The assay can be described thus: cell-based or functional assay.
T11 sequence (Q8NHL6 24-650): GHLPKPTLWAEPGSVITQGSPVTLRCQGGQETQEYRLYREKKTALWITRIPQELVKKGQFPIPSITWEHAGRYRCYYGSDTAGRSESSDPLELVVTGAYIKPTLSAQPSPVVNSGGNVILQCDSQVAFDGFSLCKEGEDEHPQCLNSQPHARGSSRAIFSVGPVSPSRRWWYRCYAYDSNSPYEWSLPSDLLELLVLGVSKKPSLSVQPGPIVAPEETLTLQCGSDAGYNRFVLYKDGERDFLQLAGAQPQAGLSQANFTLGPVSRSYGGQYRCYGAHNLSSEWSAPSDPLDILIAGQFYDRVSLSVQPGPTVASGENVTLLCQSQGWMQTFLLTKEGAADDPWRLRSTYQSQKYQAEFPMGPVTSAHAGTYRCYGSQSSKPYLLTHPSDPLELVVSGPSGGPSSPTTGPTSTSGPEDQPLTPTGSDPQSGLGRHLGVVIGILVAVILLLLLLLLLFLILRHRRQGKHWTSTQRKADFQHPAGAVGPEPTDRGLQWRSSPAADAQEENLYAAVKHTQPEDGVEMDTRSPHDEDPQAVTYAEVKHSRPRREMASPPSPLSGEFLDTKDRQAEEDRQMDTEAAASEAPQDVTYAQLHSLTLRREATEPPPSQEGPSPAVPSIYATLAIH
The target of assay [12] is T12, human ILT1 (LILRA2) on CHO cells (human, UniProt Q8N149 24-475).
T12 construct: also called CHO ILT1 cell line
The assay can be described thus: flow cytometry, CHO transfectants.

The target in assay [13] is T13, human ILT3 (LILRB4) on CHO cells (human, UniProt Q8NHJ6 24-443).
T13 construct: also called CHO ILT3 cell line
Nature of the assay: flow cytometry, CHO transfectants.

Assay [14] concerns the target T14, human ILT4 (LILRB2) on CHO cells (human, UniProt Q8N423 23-597).
T14 construct: also called CHO ILT4 cell line
Nature of the assay: flow cytometry, CHO transfectants.

Assay [15] concerns the target T15, human ILT5 (LILRB3) on CHO cells (human, UniProt O75022 24-626).
T15 construct: also called CHO ILT5 cell line
Nature of the assay: flow cytometry, CHO transfectants.

Assay [16] addresses T16, human ILT7 (LILRA4) on CHO cells (human, UniProt P59901 28-494).
T16 construct: also called CHO ILT7 cell line
Nature of the assay: flow cytometry, CHO transfectants.

Assay [17] deals with T17, human ILT8 (LILRA6) on CHO cells (human, UniProt Q6PI73 24-477).
T17 construct: also called CHO ILT8 cell line
The assay can be described thus: flow cytometry, CHO transfectants.

The target of assay [18] is T18, human ILT2 (LILRB1) expressed at the surface of transfected cells (human, UniProt Q8NHL6 24-650).
T18 construct: also called CHO-ILT2; CHO ILT2 cell line
T18 sequence (Q8NHL6 24-650): as above
The assay can be described thus: flow cytometry, CHO-ILT2 cells. The protocol:
Cells were incubated with various concentrations of unlabeled anti-ILT2 antibodies from 30 μg/ml to 5×10-⁴ μg/ml, for 30 minutes at 4° C. After washes with staining buffer, cells were incubated for 30 min at 4° C. with Goat anti-human H+L AF488 secondary antibody (Jackson Immunoresearch #109-546-088) or Goat anti-mouse H+L AF488 secondary antibody for commercially available antibodies (Jackson Immuoresearch #115-545-146). Fluorescence was measured on an Accury C6 flow cytometer equipped with an HTFC plate loader.

The target of assay [19] is T11, human ILT2 on primary NK cells. Nature of the assay: flow cytometry, primary NK cells.
The target of assay [20] is T9, ILT-2_6xHis recombinant protein. The assay can be described thus: SPR, antibody captured on Protein-A, soluble ILT2 analyte. The protocol:
as §1

For another assay, the target named is T19, ILT2 mutant 1 (human, UniProt Q8NHL6 24-650).
T19 construct: transfected in HEK293T cells; also called M1
The assay can be described thus: flow cytometry titration on HEK293T cells transfected with ILT2 mutant 1.

The target of assay [21] is T2, ILT2 mutant 2. The assay can be described thus: flow cytometry titration on HEK293T cells transfected with ILT2 mutant 2.
The target in assay [22] is T18, human ILT2 (LILRB1) expressed at the …. Nature of the assay: flow cytometry titration on HEK293T cells transfected with wild-type ILT2.
Assay [23] concerns the target T5, anchored ILT2 D4 domain protein. The assay can be described thus: flow cytometry on CHO cells expressing the anchored ILT2 D4 domain protein (SEQ ID NO: 49); stacked histograms, axis without numbers.
Assay [24] addresses T4, anchored ILT2 D3 domain protein. The assay can be described thus: flow cytometry on CHO cells expressing the anchored ILT2 D3 domain protein (SEQ ID NO: 48); stacked histograms, axis without numbers, no control histogram.
The target of assay [25] is T10, biotinylated BirA-tagged ILT2 protein …. Nature of the assay: flow cytometry blocking assay: ILT2-streptavidin-APC complexes pre-incubated with antibody, then added to K562 cells expressing HLA-G; blocked ligand HLA-G.

T2 sequence (Q8NHL6 other isoform, or with tags, fused parts or gaps mutant): as the sequence (Q8NHL6 24-650) above, with E34A, R36A, Y76I, A82S, R84L counted along it
T1 sequence (Q8N6C8 other isoform, or with tags, fused parts or gaps): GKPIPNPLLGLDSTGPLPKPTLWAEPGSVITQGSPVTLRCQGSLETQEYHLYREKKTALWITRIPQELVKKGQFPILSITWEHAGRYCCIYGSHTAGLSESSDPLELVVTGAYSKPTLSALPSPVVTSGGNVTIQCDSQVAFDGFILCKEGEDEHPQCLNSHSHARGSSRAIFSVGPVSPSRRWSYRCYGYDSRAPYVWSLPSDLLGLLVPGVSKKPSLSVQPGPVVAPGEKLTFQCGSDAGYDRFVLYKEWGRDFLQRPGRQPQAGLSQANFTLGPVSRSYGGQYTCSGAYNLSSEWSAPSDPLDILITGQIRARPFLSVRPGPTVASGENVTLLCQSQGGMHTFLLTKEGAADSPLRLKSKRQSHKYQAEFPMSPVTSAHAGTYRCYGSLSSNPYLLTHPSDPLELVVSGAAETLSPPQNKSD

B1: 48F12 (antibody, human IgG1, V domains shown)
VH: QVQLKESGPGLVAPSQSLSITCTVSGFSLTSYGVSWVRQPPGKGLEWLGIIWGDGSTNYHSALVSRLSISKDNSKSQVFLKLNSLQTDDTATYYCAKPNWDYYAMDYWGQGTSVTVSS
VL: DIQMTQTTSSLSASLGDRVTISCRASQDISNYLNWYQQKVDGTVKLLISYTSRLHSGVPSRFSGSGSGTDYSLTISNLEQEDIATYFCQQGITLPLTFGAGTKLELK
Usually Kd stands for a measure of binding affinity in units of concentration. Broadly, the koff is a measure of how fast the partners let go of each other. The term kon denotes a measure of how fast the partners come together. As for B1, the binding result (in [1]; with ILT2 mutant 2 [2]; in assay [3]; in [4]; in assay [5]; in [6]) was “no binding” in each case. The binding result in assay [7] and in [8] was “no binding” throughout. Moreover, the Kd in assay [9] stood at 0.2 nM. The koff in assay [9] amounted to 0.0001 s⁻¹. The kon in assay [9] came out at 500000 M⁻¹ s⁻¹. Besides, the “IC50 (read off the curve)” value in [10] is around 0.1 µg/mL.

B2: 12D12 (antibody, human IgG1, V domains shown)
VH: QVQLQQPGAELVKPGASVRMSCKASGYTFTSYWVHWVKQRPGQGLEWIGVIDPSDSYTSYNQNFKGKATLTVDTSSKTAYIHLSSLTSEDSAVYFCARGERYDGDYFAMDYWGQGTSVTVSS
VL: DIVMTQSPASLSVSVGETVTITCRASENIYSNLAWYQQKQGKSPQLLVYAATNLADGVPSRFSGSRSGTQYSLKINSLQSEDFGTYYCQHFWNTPRTFGGGTKLEIK
Usually EC50 stands for the concentration at which the effect is half-maximal. A high value points to a less potent agent. Broadly, the EC50 (read off the curve) is the midpoint of the concentration-response curve. Low readings indicate greater potency, high ones weaker potency. As for B2, the “CD137 expression on ILT2-positive primary NK cells” value in assay [11] is 2 fold. Besides, the “CD137 expression on NK cells of urothelial cancer patients with HLA-A2-expressing B cells” value in [11] was above 2 fold. The binding result in [12], in assay [13], in assay [14], in assay [15], in assay [1] and in assay [16] was “no binding” each time. Moreover, the binding result in assay [17] is reported as “no binding”; in assay [3], “no binding”; in assay [6], “no binding”; in assay [7], “no binding”; in [8], “no binding”; with ILT2 mutant 2 [21], “no binding (tested: about 20 µg/ml)”. For the same molecule, the binding result in [23] and in assay [24] was “no binding” each time. For the same molecule, the results for the EC50 in [18] and in assay [19] were 0.36 µg/mL and 0.09 µg/mL, respectively. Also, the Kd in [20] came out at 1 nM. For the same molecule, the koff in [20] was found to be 0.00042 s⁻¹. Further, the kon in [20] worked out at 430000 M⁻¹ s⁻¹. In addition, the “EC50 (read off the curve)” value is around 0.4 µg/mL with ILT2 mutant 1 and around 0.5 µg/mL in [22]. The “IC50 (read off the curve)” value was around 0.2 µg/mL in [25] and around 0.1 µg/mL in assay [10].

The values above are taken from patent publication US20220025056A1 (INNATE PHARMA, published 2022).
